Data set [1] has as its system recombinant human MUC16 extracellular domain. Description: Binding to recombinant human MUC16 extracellular domain.
Data set [2] in a line: Serum anti-therapeutic antibody (ATA) bridging antibody ELISA. The data set is classed as in vivo, human. The conditions noted are these: patients; minimal impact on the exposure. As for the experimental part: Serum anti-therapeutic antibody (ATA) samples were collected from all treated patients and were analyzed using a validated bridging antibody ELISA. Positive antibody responses were further characterized by competitive binding to determine if the response was primarily directed against the antibody or the linker-drug portion of the ADC.

Data set [3] deals with MUC16 expressing mouse ovarian and pancreatic cancer xenograft models. Description: Mouse xenograft anti-tumor activity. The data set is classed as in vivo. The conditions noted are these: single agent.

B1: DMUC5754A: antibody-drug conjugate: humanized IgG1 anti-MUC16 monoclonal antibody and MMAE, linked through protease labile linker maleimidocaproyl-valine-citrulline-p-aminobenzyloxycarbonyl (conjugate, chains of the INN, looked up)
VH: EVQLVESGGGLVQPGGSLRLSCAASGYSITNDYAWNWVRQAPGKGLEWVGYISYSGYTTYNPSLKSRFTISRDTSKNTLYLQMNSLRAEDTAVYYCARWTSGLDYWGQGTLVTVSS
VL: DIQMTQSPSSLSASVGDRVTITCKASDLIHNWLAWYQQKPGKAPKLLIYGATSLETGVPSRFSGSGSGTDFTLTISSLQPEDFATYYCQQYWTTPFTFGQGTKVEIK
modifications: MMAE via mc-vc-PABC linker
As for B1, the binding affinity entry in data set [1] is “high affinity”. Further, the immunogenicity rate in data set [2] is given as 14.1%. The anti-tumor activity result in data set [3] is “potent and selective single agent anti-tumor activity”.

These data come from patent publication US11440969B2, “Use of human epididymis protein 4 (HE4) for assessing responsiveness of MUC 16-positive cancer treatment” (Genentech, Inc., priority 2016, dated 2022).
